The values that follow come from patent publication US20130345115A1.

The target of test [1] is (Δ1-28) H4 nucleosome (mononucleosome with FLAG-HA-tagged tailless human H4 lacking the first 28 amino acids) (human; human (293T cells)) (UniProt P62805). As to the kind of experiment: MudPIT, co-purification.
The target in test [2] is Wild type H4 nucleosome (mononucleosome with FLAG-HA-tagged wild type human H4) (human; human (293T cells)) (UniProt P62805). As to the kind of experiment: MudPIT, co-purification.

In test [1], “ADP-ribosylation factor 1 (from UniProt P84077 2-181)” came in with an amino acid coverage of 8.8% and a peptide count of 1 peptides.
In the case of “EuHMT1 (from UniProt Q9H9B1 2-1298) (enzyme)”, in test [1], the peptide count was 0 peptides. Further, in test [2], the amino acid coverage was determined as 5.7% and the peptide count came to 3 peptides.
In the case of “H1 histone family, member 0 (H1F0) (from UniProt P07305 2-194)”, in test [1], the amino acid coverage was 16.2% and the peptide count is 2 peptides. In test [2], this substance gave an amino acid coverage of 21.2% and a peptide count of 3 peptides.
For Histone H2A the same measures were 74.1%, 6 peptides, 63.1% and 5 peptides.
In the same order, the values of Histone H2B are 59.4%, 5 peptides, 54.7% and 5 peptides.
For Histone H3 the same measures were 89.6%, 7 peptides, 82.6% and 6 peptides.
For the substance “RAD23 homolog B (S. cerevisiae) (from UniProt P54727 1-409)”, in test [1], the amino acid coverage came to 8.9% and the peptide count was found to be 1 peptides.
Regarding “RuvB-like 1 (E. coli) (from UniProt Q9Y265 1-456)”, the values for the amino acid coverage in test [1] and in test [2] were 21.3% and 19.1%, respectively. Also, the peptide count in test [1] turned out to be 8 peptides; in test [2], 7 peptides.
In test [1], “RuvB-like 2 (E. coli) (from UniProt Q9Y230 2-463)” yielded an amino acid coverage of 16.3% and a peptide count of 8 peptides. In test [2], this substance displayed an amino acid coverage of 13.4% and a peptide count of 5 peptides.
In test [2], “SWI/SNF complex 170 KDa subunit (from UniProt Q8TAQ2 1-1214)” had an amino acid coverage of 4.3% and a peptide count of 3 peptides.
In the case of “SWI/SNF related, matrix associated, actin dependent regulator of chromatin, subfamily a, member 1 (from UniProt P28370 1-1042)”, in test [1], the amino acid coverage is 19.2% and the peptide count came to 9 peptides. For the same substance, in test [2], the amino acid coverage stood at 24.9% and the peptide count is 11 peptides.
In test [1], “Snf2-related CREBBP activator protein (from UniProt Q6ZRS2 1-3230)” yielded an amino acid coverage of 1.9% and a peptide count of 3 peptides.
On to “TATA box binding protein-associated factor, 135 kDa (from UniProt O00268 1-1085)”, for which, in test [2], the amino acid coverage worked out at 6.6% and the peptide count was 5 peptides.
In test [1], “WD repeat domain 77 (from UniProt Q9BQA1 1-342)” showed an amino acid coverage of 11.4% and a peptide count of 2 peptides.
In test [1], “anti-silencing function 1 homolog B (from UniProt Q9NVP2 1-202)” displayed an amino acid coverage of 18.8% and a peptide count of 2 peptides.
In the same order, the values of “death-domain associated protein (from UniProt Q9UER7 1-740)” are 2.4% and 1 peptides.
In the same order, the values of “mediator of DNA-damage checkpoint 1 (from UniProt Q14676 1-2089)” are 18.4% and 4 peptides.
In test [2], “metal response element binding transcription factor 2 (from UniProt Q9Y483 1-593)” gave an amino acid coverage of 4.6% and a peptide count of 2 peptides.
In the same order, the values of “thyroid hormone receptor-associated protein complex component (from UniProt Q9Y2W1 2-955)” are 3.4% and 2 peptides.
In the same order, the values of “transcription factor 20 (AR1) (from UniProt Q9UGU0 1-1960)” are 2.4% and 3 peptides.
